T1: GST-Sec15^550–892 (C. albicans, UniProt A0A1D8PM29 550-892)
T1 construct: The methods say only that similar strategies as for Sec15 and Rsr1 were used; source: E. coli, purified
T1 sequence (looked up): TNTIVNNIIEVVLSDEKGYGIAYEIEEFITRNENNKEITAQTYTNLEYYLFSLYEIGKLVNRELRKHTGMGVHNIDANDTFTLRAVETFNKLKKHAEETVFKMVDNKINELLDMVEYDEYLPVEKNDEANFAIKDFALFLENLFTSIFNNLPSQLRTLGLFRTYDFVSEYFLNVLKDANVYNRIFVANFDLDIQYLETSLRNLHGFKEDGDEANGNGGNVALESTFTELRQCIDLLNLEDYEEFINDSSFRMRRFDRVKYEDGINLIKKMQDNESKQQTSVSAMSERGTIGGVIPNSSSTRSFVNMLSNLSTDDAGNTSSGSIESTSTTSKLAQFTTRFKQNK

T2: His-Sec15^1–300 (C. albicans, UniProt A0A1D8PM29 1-300)
T2 construct: Sec15, exocyst component of Candida albicans, amino acids 1 to 300; Subcloned into pET21-a (Novagen); also called His6-Sec15^1–300; source: E. coli, purified
T2 sequence (looked up): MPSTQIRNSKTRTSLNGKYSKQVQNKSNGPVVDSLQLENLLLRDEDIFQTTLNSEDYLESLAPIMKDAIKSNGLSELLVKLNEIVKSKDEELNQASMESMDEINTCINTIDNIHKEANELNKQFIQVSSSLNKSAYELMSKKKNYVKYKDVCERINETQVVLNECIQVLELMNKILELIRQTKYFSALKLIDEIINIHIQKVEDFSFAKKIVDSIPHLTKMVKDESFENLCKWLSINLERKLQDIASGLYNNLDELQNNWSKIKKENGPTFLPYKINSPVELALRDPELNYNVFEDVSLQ

T3: His-Sec15^1–549 (C. albicans, UniProt A0A1D8PM29 1-549)
T3 construct: Sec15, exocyst component of Candida albicans, amino acids 1 to 549; Subcloned into pET21-a (Novagen); also called His6-Sec15^1–549; source: E. coli, purified
T3 sequence (looked up): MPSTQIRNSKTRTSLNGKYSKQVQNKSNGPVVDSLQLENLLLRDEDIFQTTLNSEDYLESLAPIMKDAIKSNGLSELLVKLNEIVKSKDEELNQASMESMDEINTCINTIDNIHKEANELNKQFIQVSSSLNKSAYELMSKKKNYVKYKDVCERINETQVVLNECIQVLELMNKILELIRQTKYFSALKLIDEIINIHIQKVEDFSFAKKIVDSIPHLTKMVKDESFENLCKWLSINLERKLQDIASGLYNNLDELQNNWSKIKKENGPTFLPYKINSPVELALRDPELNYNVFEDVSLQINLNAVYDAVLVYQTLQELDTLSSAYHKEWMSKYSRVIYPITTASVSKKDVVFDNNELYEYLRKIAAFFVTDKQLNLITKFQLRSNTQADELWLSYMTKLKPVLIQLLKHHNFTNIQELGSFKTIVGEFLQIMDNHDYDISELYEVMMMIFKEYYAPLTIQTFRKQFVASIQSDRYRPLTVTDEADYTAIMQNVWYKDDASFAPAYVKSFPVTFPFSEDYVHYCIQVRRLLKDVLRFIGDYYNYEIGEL

B1: His-Bem1^1–300 (domain or fragment, C. albicans, UniProt A0A1D8PLB6 1-300, looked up)
chain: MIKTFRKSKRSSSNSSSPKKTISRVSSTSSNQTSHDGILQSPKKVIRALYDYEPQGPGELKFFKGDFFHVLDDVDDELHKEAEANGWIEATNPMTQLKGMVPISYFEIFDRSRPTVTASSNSFTNSIDIQHQHQHQQGIHNGTGNRNLNQTLYAVTLYEFKAERDDELDIMPNENLIICAHHDYEWFIAKPINRLGGPGLVPVSYVKIIDLLNPNSHYTSIDTSRRSQVIQVINGFNIPTVEQWKNQTAKYQASTIPLGSISGSGTPPTSANSQYFDNHTMTSNRSSSGSSISIVEASVD
notes: Bem1, polarity determinant of Candida albicans, N-terminal 300 amino acids; also called His6-Bem1^1–300; N-terminal 300 amino acids of Bem1; source: similar strategies as for the E. coli proteins
B2: GST-Rsr1^K16N (GDP-locked form of Rsr1) (natural protein)
chain: MRDYKVVVLGAGGVGNSSITVQFVQGVYVESYDPTIEDSYRKQIEVDGRACDLEILDTAGVAQFTAMRELYIKSGKGFLLVYSVTDENSLKELLALREQVLRIKDSDNVPMVLVGNKCDLEDDRVLSIEDGVKVSQDWGLVPFYETSAMYKTNVDEAFIDVVRQIMRKEAAISAEKKQQKELQKQQQQQQQEQDAEGQQQQQKSGKSKSSATQKDATADGQTDVNARLKQSINDHPKSSSGSKFCTII
notes: Rsr1, Ras-family GTPase of Candida albicans; GDP-locked mutant K16N; Made with the pGEX vector system (Amersham Biosciences), which normally places GST at the N-terminus; also called Rsr1-GDP; recombinant Rsr1^K16N

What was measured:
Assay in all cases: pull-down; GST fusion protein immobilised on glutathione-Sepharose beads (20 μl), incubated with 20 μg of purified His-tagged protein in 200 μl binding buffer (1× PBS, 1 mg/ml ovalbumin, 10 mM β-mercaptoethanol, 0.1% IGPAL-30), 1 hour at room temperature; four washes; anti-His blot
Settings in all cases: both partners purified
GST-Sec15^550–892 = molecular target: T1, GST-Sec15^550–892
His-Sec15^1–300 = molecular target: T2, His-Sec15^1–300
His-Sec15^1–549 = molecular target: T3, His-Sec15^1–549

Binder | binding result (GST-Sec15^550–892) | binding result (His-Sec15^1–300) | binding result (His-Sec15^1–549)
B1 | binds | – | –
B2 | – | binds | binds

Reference: paper PMC4881018, “Sec15 links bud site selection to polarised cell growth and exocytosis in Candida albicans” (Scientific Reports, 2016)
